In paper PMC9428257 (2022) one finds Kd data, which are given here for one molecule.

What all share (experiment): FACS
On the technique in general: Flow cytometry measures light scatter and fluorescence of single cells or particles in a stream.

The target of one test is Clone V8.
A further test deals with Clone V5.
In test [1] the target is yeast-displayed mutant sBCMA V2 (V3 without N53D) (human, UniProt Q02223 1-54, S16G | H19Y | T36A).

B1: human APRIL (a proliferation-inducing ligand) (ligand)
chain: AVLTQKQKKQHSVLHLVPINATSKDDSDVTEVMWQPALRRGRGLQAQGYGVRIQDAGVYLLYSQVLFQDVTFTMGQVVSREGQGRQETLFRCIRSMPSHPDRAYNSCYSAGVFHLHQGDILSVIIPRARAKLNLSPHGTFLGFVKL
Usually Kd stands for the concentration at which binding is half-saturated. For B1, the Kd is 54 pM with Clone V8, 7 pM with Clone V5 and 18 pM in test [1].
